Assay results published in patent publication US20160327558A1 (HELMHOLTZ ZENTRUM M NCHEN DEUTSCHES FORSCHUNGSZENTRUM F R …, published 2016).
Where a chain is given by its changes, count along the chain named. Primed or numbered codes have the meaning given here. The star is where a group is joined. AOMK(5) = C-terminal Arg as acyloxymethyl ketone (dimethyl benzoic acid leaving group), Cc1cccc(C)c1C(=O)OCC(=O)[C@H](CCCNC(=N)N)N*; AOMK(4) = acyloxymethyl ketone (C-terminal covalent warhead); BODIPY(FL) = CC1=CC(C)=[N+]2C1=Cc1ccc(CCC(=O)*)n1[B-]2(F)F; FITC = O=C1OC2(c3ccc(O)cc3Oc3cc(O)ccc32)c2ccc(NC(=S)*)cc21; Butanoyl(4-ethynyl) = C#CCCCC(=O)*

What was measured:
[1] = target: T1, FLAG-MALT1 wt (MALT1 Isoform B, overexpressed in Jurkat T cells) (human, UniProt Q9UDY8 2-824); assay: labeling after lysis and FLAG IP, in-gel fluorescence
T1 construct: also called overexpressed FLAG-MALT1 wt; not shown: N-terminal FLAG tag (or HA tag)
T1 sequence: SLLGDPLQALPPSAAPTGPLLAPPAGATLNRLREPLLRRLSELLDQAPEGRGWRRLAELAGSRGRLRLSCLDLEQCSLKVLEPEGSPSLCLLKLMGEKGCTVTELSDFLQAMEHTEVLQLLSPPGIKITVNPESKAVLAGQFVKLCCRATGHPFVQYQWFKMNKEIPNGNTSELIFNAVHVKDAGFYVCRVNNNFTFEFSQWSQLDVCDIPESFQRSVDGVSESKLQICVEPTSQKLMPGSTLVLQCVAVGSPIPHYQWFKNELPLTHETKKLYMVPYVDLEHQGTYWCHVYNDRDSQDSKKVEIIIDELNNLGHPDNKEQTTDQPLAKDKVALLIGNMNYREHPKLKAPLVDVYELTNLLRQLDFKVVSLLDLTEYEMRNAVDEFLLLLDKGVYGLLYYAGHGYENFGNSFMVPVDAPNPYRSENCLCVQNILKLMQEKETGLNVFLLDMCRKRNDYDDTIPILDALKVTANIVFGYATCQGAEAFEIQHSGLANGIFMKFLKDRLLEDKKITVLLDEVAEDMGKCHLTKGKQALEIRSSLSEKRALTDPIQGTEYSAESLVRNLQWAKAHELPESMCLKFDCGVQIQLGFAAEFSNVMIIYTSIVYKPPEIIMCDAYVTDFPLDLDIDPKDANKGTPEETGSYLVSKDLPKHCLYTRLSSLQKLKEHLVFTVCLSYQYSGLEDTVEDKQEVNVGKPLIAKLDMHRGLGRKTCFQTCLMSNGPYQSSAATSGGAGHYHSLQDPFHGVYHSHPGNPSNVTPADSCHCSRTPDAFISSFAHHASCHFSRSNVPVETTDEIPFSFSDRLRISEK
Experimental: (§1) Jurkat T cells, transfected with active FLAG-[…] wt or active site mutant C464A, were stained after lysis and IP with probe 2, pre-clicked to TAMRA. Analysis was done by fluorescence staining.
(§2) Cells were lysed in 500 μl co-IP buffer without protease inhibitors (25 mM hepes pH 7.5, 150 mM NaCl, 0.2% NP-40, 10% glycerol, 1 mM DTT, 10 mM sodium fluoride, 8 mM β-glycerophosphate and 300 μM sodium vanadate), centrifuged (14000 rpm, 10 min, 4° C.) and overexpressed FLAG MALT1 was immunoprecipitated by FLAG (M2) antibody for 3 hours at 4° C. PGS was added for 1 h at 4° C., precipitate was washed 2× with co-IP buffer and 1× with 50 mM hepes pH 7.4. Precipitated MALT1 was incubated with 0.3 μM pre-clicked probe 2 (in 20 μl 50 mM hepes pH 7.4) for 50 min at 29° C., mixed with 4× loading dye and boiled for 3 min. After protein separation by SDS PAGE, staining with diagnostic inhibitor was detected by Typhoon Fluorescence Scanner (FITC laser 488 nm/filter 526 SP; TAMRA laser 532 nm/filter 580 BP).

[2] = target: T2, FLAG-MALT1 active site mutant C464A (C453A in Isoform B) (human, UniProt Q9UDY8 2-824); assay: labeling after FLAG IP, SDS PAGE, fluorescence scanning
T2 construct: Isoform B with C453A; also called MALT1 mutant; not shown: N-terminal FLAG tag (or HA tag)
T2 sequence: T1 sequence with C452A
Experimental: as §1, §2

Human cathepsin B [3] = target: T3, Human cathepsin B (human, UniProt P07858 80-333); assay: extracts of Jurkat T cells labeled with probe 5, in-gel fluorescence
Human cathepsin B [4] = target: T3, Human cathepsin B; assay: Jurkat whole cell extract labeled with probe 5 or probe 6, fluorescent scanning
Experimental: FIG. 6: Jurkat T cells were stimulated or not, lysed and whole cell extract was incubated with indicated concentrations of FITC conjugated probe 5 or BODIPY conjugated probe 6 and analyzed via fluorescent scanning. Probe 6 results in slightly higher active MALT1 labeling and cathepsin labeling (open circle) seems to be reduced.
Jurkat T cells (1-2×10⁷), primary human PBMCs or primary human T cells (0.25 or 1×10⁷) were lysed in 150 μl co-IP buffer without protease inhibitors. DLBCL (3×10⁷) were lysed in 250 μl buffer. After centrifugation (14000 rpm, 10 min, 4° C.), 100 μl extract (DLBCL: 200 μl) was stained with probe 5 or probe 6 (3 μM end) for 50 min at 29° C., mixed with 4× loading dye and boiled.

Human cathepsin B [5] = target: T3, Human cathepsin B; assay: reduction of the labeled cathepsin B band and in vitro cathepsin B cleavage assay
Experimental: 0.2 ng cathepsin B together with probe 5, z-VRPR-FMK, mepazine or CA-074 was incubated with 1 mM zRR-AMC substrate for 2 h at 30° C. Assay was performed in 0.1 M sodium acetate pH 5.5, 10 mM DTT and 0.1 mM EDTA. Again, increase of AMC fluorescence is measured in a Synergy 2 Microplate Reader (Biotek).
Importantly, MALT1 was the only inducible band in extracts labeled with probe 5, although some background signals were obtained. […] As expected, Caspase 8 activity was not affected by the diagnostic inhibitors of MALT1 of the present invention. […] In agreement with cross-reaction of the diagnostic MALT1 inhibitors of the present invention and cathepsin B, preincubation of CA-074Me in Jurkat T cells completely abolished detection of the ˜30 kDa signal while inducible MALT1 labeling was unaffected (FIG. 3D). Thus, tetrapeptides that target the active site of MALT1 are also binding to cathepsin B. Since serine (LRSR) or proline (VRPR) at the P2 position is already poorly tolerated by cysteine cathepsins, improvement of the peptide scaffold may be very difficult.

B1: probe 2 (alkyne-LRSR-AOMK), pre-clicked to TAMRA (peptide)
peptide: {N‑TAMRA‑3‑aminopropylazide (click)-Butanoyl(4-ethynyl)}-LRSR-{AOMK(5)}
notes: Covalent activity-based probe; also called TAMRA-LRSR-AOMK
- binding result [1]: binds
- binding result [2]: no binding (tested: 0.3 µM pre-clicked probe 2)

B2: probe 5 (FITC-LRSR-AOMK) (peptide)
peptide: {FITC}-LRSR-{AOMK(4)}
notes: Covalent activity-based probe; also called FITC conjugated probe 5
- binding result (Human cathepsin B [3]): binds

B3: probe 6 ((BODIPY-FL)-LRSR-AOMK) (peptide)
peptide: {BODIPY(FL)}-LRSR-{AOMK(5)}
SMILES: CC1=CC(C)=[N+]2C1=Cc1ccc(CCC(=O)N[C@@H](CC(C)C)C(=O)N[C@@H](CCCNC(=N)N)C(=O)N[C@@H](CO)C(=O)N[C@@H](CCCNC(=N)N)C(=O)N[C@@H](CCCNC(=N)N)C(=O)COC(=O)c3c(C)cccc3C)n1[B-]2(F)F
notes: Covalent activity-based probe; also called BODIPY conjugated probe 6; BODIPY probe 6
- binding result (Human cathepsin B [4]): binds

B4: z-VRPR-FMK (peptide)
peptide: VRPR
modifications: not fully specified; N-terminal z group; C-terminal Arg as fluoromethylketone (FMK)
notes: Bought (Alexis Biochemicals)
- binding result (Human cathepsin B [5]): binds
